Where two headings read alike, the source gives them in different places. Blank lines part the entries; values can stand above or below the binder they belong to.
B1: human adenylosuccinate lyase (ASL), wild type, His-tag (enzyme)
chain: MAAGGDHGSPDSYRSPLASRYASPEMCFVFSDRYKFRTWRQLWLWLAEAEQTLGLPITDEQIQEMKSNLENIDFKMAAEEEKRLRHDVMAHVHTFGHCCPKAAGIIHLGATSCYVGDNTDLIILRNALDLLLPKLARVISRLADFAKERASLPTLGFTHFQPAQLTTVGKRCCLWIQDLCMDLQNLKRVRDDLRFRGVKGTTGTQASFLQLFEGDDHKVEQLDKMVTEKAGFKRAFIITGQTYTRKVDIEVLSVLASLGASVHKICTDIRLLANLKEMEEPFEKQQIGSSAMPYKRNPMRSERCCSLARHLMTLVMDPLQTASVQWFERTLDDSANRRICLAEAFLTADTILNTLQNISEGLVVYPKVIERRIRQELPFMATENIIMAMVKAGGSRQDCHEKIRVLSQQAASVVKQEGGDNDLIERIQVDAYFSPIHSQLDHLLDPSSFTGRASQQVQRFLEEEVYPLLKPYESVMKVKAE
B5: human adenylosuccinate lyase (ASL) R194C, His-tag (enzyme)
chain: MAAGGDHGSPDSYRSPLASRYASPEMCFVFSDRYKFRTWRQLWLWLAEAEQTLGLPITDEQIQEMKSNLENIDFKMAAEEEKRLRHDVMAHVHTFGHCCPKAAGIIHLGATSCYVGDNTDLIILRNALDLLLPKLARVISRLADFAKERASLPTLGFTHFQPAQLTTVGKRCCLWIQDLCMDLQNLKRVRDDLCFRGVKGTTGTQASFLQLFEGDDHKVEQLDKMVTEKAGFKRAFIITGQTYTRKVDIEVLSVLASLGASVHKICTDIRLLANLKEMEEPFEKQQIGSSAMPYKRNPMRSERCCSLARHLMTLVMDPLQTASVQWFERTLDDSANRRICLAEAFLTADTILNTLQNISEGLVVYPKVIERRIRQELPFMATENIIMAMVKAGGSRQDCHEKIRVLSQQAASVVKQEGGDNDLIERIQVDAYFSPIHSQLDHLLDPSSFTGRASQQVQRFLEEEVYPLLKPYESVMKVKAE

What was measured:
AUC [1] = target: the molecule itself; experiment: AUC
AUC [2] = target: the molecule itself; experiment: AUC; remark: listed apart in the source
[3] = target: B1; experiment: AUC
[4] = target: B5; experiment: AUC
[5] = target: B1; experiment: in vitro subunit hybridisation with separation on Ni-NTA
[6] = target: B5; experiment: as above
[7] = target: B1; experiment: AUC; remark: listed apart in the source
[8] = target: B5; experiment: AUC; remark: listed apart in the source
AUC [9] = target: the molecule itself; experiment: AUC; remark: listed apart in the source

Binder: B1
stoichiometry N (AUC [1]): 4
percent tetramer (M-Tet model) (AUC [2]): 77%

B2: human adenylosuccinate lyase (ASL) L311V, His-tag (enzyme)
chain: MAAGGDHGSPDSYRSPLASRYASPEMCFVFSDRYKFRTWRQLWLWLAEAEQTLGLPITDEQIQEMKSNLENIDFKMAAEEEKRLRHDVMAHVHTFGHCCPKAAGIIHLGATSCYVGDNTDLIILRNALDLLLPKLARVISRLADFAKERASLPTLGFTHFQPAQLTTVGKRCCLWIQDLCMDLQNLKRVRDDLRFRGVKGTTGTQASFLQLFEGDDHKVEQLDKMVTEKAGFKRAFIITGQTYTRKVDIEVLSVLASLGASVHKICTDIRLLANLKEMEEPFEKQQIGSSAMPYKRNPMRSERCCSLARHVMTLVMDPLQTASVQWFERTLDDSANRRICLAEAFLTADTILNTLQNISEGLVVYPKVIERRIRQELPFMATENIIMAMVKAGGSRQDCHEKIRVLSQQAASVVKQEGGDNDLIERIQVDAYFSPIHSQLDHLLDPSSFTGRASQQVQRFLEEEVYPLLKPYESVMKVKAE
stoichiometry N (AUC [1]): 4
percent tetramer (M-Tet model) (AUC [2]): 68%

B3: human adenylosuccinate lyase (ASL) R396C, His-tag (enzyme)
chain: MAAGGDHGSPDSYRSPLASRYASPEMCFVFSDRYKFRTWRQLWLWLAEAEQTLGLPITDEQIQEMKSNLENIDFKMAAEEEKRLRHDVMAHVHTFGHCCPKAAGIIHLGATSCYVGDNTDLIILRNALDLLLPKLARVISRLADFAKERASLPTLGFTHFQPAQLTTVGKRCCLWIQDLCMDLQNLKRVRDDLRFRGVKGTTGTQASFLQLFEGDDHKVEQLDKMVTEKAGFKRAFIITGQTYTRKVDIEVLSVLASLGASVHKICTDIRLLANLKEMEEPFEKQQIGSSAMPYKRNPMRSERCCSLARHLMTLVMDPLQTASVQWFERTLDDSANRRICLAEAFLTADTILNTLQNISEGLVVYPKVIERRIRQELPFMATENIIMAMVKAGGSCQDCHEKIRVLSQQAASVVKQEGGDNDLIERIQVDAYFSPIHSQLDHLLDPSSFTGRASQQVQRFLEEEVYPLLKPYESVMKVKAE
stoichiometry N (AUC [1]): 4
percent tetramer (M-Tet model) (AUC [2]): 78%

B4: human adenylosuccinate lyase (ASL) R396H, His-tag (enzyme)
chain: MAAGGDHGSPDSYRSPLASRYASPEMCFVFSDRYKFRTWRQLWLWLAEAEQTLGLPITDEQIQEMKSNLENIDFKMAAEEEKRLRHDVMAHVHTFGHCCPKAAGIIHLGATSCYVGDNTDLIILRNALDLLLPKLARVISRLADFAKERASLPTLGFTHFQPAQLTTVGKRCCLWIQDLCMDLQNLKRVRDDLRFRGVKGTTGTQASFLQLFEGDDHKVEQLDKMVTEKAGFKRAFIITGQTYTRKVDIEVLSVLASLGASVHKICTDIRLLANLKEMEEPFEKQQIGSSAMPYKRNPMRSERCCSLARHLMTLVMDPLQTASVQWFERTLDDSANRRICLAEAFLTADTILNTLQNISEGLVVYPKVIERRIRQELPFMATENIIMAMVKAGGSHQDCHEKIRVLSQQAASVVKQEGGDNDLIERIQVDAYFSPIHSQLDHLLDPSSFTGRASQQVQRFLEEEVYPLLKPYESVMKVKAE
stoichiometry N (AUC [1]): 4

Binder: B5
stoichiometry N (AUC [1]): 4
percent tetramer (M-Tet model) (AUC [2]): 73%

percent tetramer (M-Tet model), pool 2 [3]: 72%
percent tetramer (M-Tet model), pool 3 [3]: 70%
percent tetramer (M-Tet model), pool 2 [4]: 78%
percent tetramer (M-Tet model), pool 3 [4]: 80%
subunit ratio (Non-His-tag: His-tag) by SDS-PAGE, pool 2 [5]: 1.2 non-His-tag per His-tag subunit
subunit ratio (Non-His-tag: His-tag) by SDS-PAGE, pool 3 [5]: 2.3 His-tag per non-His-tag subunit
subunit ratio (Non-His-tag: His-tag) by SDS-PAGE, pool 2 [6]: 1.2 non-His-tag per His-tag subunit
subunit ratio (Non-His-tag: His-tag) by SDS-PAGE, pool 3 [6]: 3.2 His-tag per non-His-tag subunit
stoichiometry N [7]: 4
stoichiometry N [8]: 4
B6: human adenylosuccinate lyase (ASL) R396C, non-His-tag (enzyme)
chain: MAAGGDHGSPDSYRSPLASRYASPEMCFVFSDRYKFRTWRQLWLWLAEAEQTLGLPITDEQIQEMKSNLENIDFKMAAEEEKRLRHDVMAHVHTFGHCCPKAAGIIHLGATSCYVGDNTDLIILRNALDLLLPKLARVISRLADFAKERASLPTLGFTHFQPAQLTTVGKRCCLWIQDLCMDLQNLKRVRDDLRFRGVKGTTGTQASFLQLFEGDDHKVEQLDKMVTEKAGFKRAFIITGQTYTRKVDIEVLSVLASLGASVHKICTDIRLLANLKEMEEPFEKQQIGSSAMPYKRNPMRSERCCSLARHLMTLVMDPLQTASVQWFERTLDDSANRRICLAEAFLTADTILNTLQNISEGLVVYPKVIERRIRQELPFMATENIIMAMVKAGGSCQDCHEKIRVLSQQAASVVKQEGGDNDLIERIQVDAYFSPIHSQLDHLLDPSSFTGRASQQVQRFLEEEVYPLLKPYESVMKVKAE
stoichiometry N (AUC [9]): 4
